The target in assay [1] is T1, S. cerevisiae wild type Msh2-Msh6 (S. cerevisiae, UniProt P25847 1-964; Q03834 1-1242).
T1 construct: Msh2, S. cerevisiae, wild type, from the pET11 MSH2-MSH6 plasmid; Msh6, S. cerevisiae, wild type, from the pET11 MSH2-MSH6 plasmid; also called Msh2-Msh6 heterodimer; source: E. coli BL21 (DE) RIL, pET11 MSH2-MSH6 plasmid, purified according to a previously published procedure
The assay is described as follows: SPR; Biacore T100, 25°C; biotinylated 236 bp DNA (GC base pair, central TG mispair or +T insertion, lacO end blocked by 30 nM LacI) on a streptavidin SA chip; 20 nM Msh2-Msh6 or Msh2-Msh3 with 250 µM ATP injected for 100 s, then the same mixture with 40 nM Mlh1-Pms1 or Mlh1-Mlh2 for 150 s; 25 mM Tris-Cl pH 8.0, 4 mM MgCl2, 110 mM NaCl, 0.01% Igepal, 2 mM DTT, 2% glycerol; signal of the MutL homolog on DNA alone …. The note with it: both partners purified. (In general: In SPR one partner is held on a chip, and binding of the other changes the refractive index at the surface.)

A further assay deals with T2, S. cerevisiae Msh2-Msh3 (S. cerevisiae, UniProt P25847 1-964; P25336 1-1018).
T2 construct: Msh2, S. cerevisiae, expressed from pRDK354 (pGAL1-10-MSH2 URA3); Msh3, S. cerevisiae, expressed from pRDK1596 (pGAL1-10 MSH3-FLAG LEU2); also called Msh2-Msh3 heterodimer; source: S. cerevisiae RDKY2418 with pRDK354 and pRDK1596, purified as described previously
T2 sequence (P25847 whole entry, chain 1 of 2): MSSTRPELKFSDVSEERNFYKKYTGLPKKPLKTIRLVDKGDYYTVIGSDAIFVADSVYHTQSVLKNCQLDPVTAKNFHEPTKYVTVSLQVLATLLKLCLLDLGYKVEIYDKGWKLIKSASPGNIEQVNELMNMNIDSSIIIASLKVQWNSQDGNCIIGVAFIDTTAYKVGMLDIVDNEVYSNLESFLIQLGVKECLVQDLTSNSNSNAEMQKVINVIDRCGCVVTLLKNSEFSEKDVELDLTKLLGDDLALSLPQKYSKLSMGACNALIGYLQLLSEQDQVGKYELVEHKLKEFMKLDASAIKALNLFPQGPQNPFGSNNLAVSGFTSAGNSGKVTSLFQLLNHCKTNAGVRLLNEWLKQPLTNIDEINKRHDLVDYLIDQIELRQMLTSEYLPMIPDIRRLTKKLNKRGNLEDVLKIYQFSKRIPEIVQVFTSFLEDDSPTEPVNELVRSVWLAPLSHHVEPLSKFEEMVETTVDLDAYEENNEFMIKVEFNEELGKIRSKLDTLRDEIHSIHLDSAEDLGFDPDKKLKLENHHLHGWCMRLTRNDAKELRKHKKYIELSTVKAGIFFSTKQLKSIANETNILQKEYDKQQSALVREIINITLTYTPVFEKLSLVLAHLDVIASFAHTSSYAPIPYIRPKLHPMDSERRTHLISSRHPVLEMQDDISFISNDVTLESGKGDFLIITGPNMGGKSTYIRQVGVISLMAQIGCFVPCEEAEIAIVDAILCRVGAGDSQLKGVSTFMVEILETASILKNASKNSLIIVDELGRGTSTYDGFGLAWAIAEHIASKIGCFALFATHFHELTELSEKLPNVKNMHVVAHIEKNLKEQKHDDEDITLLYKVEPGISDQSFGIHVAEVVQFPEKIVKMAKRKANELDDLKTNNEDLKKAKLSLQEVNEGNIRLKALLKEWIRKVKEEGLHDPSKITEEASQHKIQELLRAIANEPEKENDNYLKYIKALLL
T2 sequence (P25336 whole entry, chain 2 of 2): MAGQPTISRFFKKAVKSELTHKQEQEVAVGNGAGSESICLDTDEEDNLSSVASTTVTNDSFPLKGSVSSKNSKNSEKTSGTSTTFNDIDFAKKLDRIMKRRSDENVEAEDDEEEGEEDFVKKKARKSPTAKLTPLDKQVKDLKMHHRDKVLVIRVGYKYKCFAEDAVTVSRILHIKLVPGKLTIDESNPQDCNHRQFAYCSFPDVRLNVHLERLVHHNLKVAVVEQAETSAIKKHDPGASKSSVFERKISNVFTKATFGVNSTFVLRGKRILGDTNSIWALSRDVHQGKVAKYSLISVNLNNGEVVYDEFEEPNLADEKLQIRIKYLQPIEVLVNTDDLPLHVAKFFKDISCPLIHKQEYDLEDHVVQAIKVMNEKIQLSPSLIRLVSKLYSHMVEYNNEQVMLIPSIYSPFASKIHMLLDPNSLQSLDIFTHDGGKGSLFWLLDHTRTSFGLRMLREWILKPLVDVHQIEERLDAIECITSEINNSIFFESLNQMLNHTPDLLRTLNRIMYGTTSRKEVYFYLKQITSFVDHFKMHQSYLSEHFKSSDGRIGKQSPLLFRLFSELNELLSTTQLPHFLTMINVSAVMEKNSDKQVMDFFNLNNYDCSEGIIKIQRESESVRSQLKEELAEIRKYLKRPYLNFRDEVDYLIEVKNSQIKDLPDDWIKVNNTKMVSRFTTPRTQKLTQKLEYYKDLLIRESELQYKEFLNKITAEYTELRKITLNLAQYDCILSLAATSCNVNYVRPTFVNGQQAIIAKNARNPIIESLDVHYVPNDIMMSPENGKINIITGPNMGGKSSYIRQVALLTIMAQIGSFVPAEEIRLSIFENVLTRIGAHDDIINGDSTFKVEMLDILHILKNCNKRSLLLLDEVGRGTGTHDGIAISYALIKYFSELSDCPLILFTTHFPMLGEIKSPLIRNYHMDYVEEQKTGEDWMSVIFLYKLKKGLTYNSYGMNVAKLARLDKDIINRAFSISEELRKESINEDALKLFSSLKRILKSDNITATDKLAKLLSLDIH
The assay is described as above. The note with it: both partners purified.

T1 sequence (P25847 whole entry, chain 1 of 2): as the sequence (P25847 whole entry, chain 1 of 2) above
T1 sequence (Q03834 whole entry, chain 2 of 2): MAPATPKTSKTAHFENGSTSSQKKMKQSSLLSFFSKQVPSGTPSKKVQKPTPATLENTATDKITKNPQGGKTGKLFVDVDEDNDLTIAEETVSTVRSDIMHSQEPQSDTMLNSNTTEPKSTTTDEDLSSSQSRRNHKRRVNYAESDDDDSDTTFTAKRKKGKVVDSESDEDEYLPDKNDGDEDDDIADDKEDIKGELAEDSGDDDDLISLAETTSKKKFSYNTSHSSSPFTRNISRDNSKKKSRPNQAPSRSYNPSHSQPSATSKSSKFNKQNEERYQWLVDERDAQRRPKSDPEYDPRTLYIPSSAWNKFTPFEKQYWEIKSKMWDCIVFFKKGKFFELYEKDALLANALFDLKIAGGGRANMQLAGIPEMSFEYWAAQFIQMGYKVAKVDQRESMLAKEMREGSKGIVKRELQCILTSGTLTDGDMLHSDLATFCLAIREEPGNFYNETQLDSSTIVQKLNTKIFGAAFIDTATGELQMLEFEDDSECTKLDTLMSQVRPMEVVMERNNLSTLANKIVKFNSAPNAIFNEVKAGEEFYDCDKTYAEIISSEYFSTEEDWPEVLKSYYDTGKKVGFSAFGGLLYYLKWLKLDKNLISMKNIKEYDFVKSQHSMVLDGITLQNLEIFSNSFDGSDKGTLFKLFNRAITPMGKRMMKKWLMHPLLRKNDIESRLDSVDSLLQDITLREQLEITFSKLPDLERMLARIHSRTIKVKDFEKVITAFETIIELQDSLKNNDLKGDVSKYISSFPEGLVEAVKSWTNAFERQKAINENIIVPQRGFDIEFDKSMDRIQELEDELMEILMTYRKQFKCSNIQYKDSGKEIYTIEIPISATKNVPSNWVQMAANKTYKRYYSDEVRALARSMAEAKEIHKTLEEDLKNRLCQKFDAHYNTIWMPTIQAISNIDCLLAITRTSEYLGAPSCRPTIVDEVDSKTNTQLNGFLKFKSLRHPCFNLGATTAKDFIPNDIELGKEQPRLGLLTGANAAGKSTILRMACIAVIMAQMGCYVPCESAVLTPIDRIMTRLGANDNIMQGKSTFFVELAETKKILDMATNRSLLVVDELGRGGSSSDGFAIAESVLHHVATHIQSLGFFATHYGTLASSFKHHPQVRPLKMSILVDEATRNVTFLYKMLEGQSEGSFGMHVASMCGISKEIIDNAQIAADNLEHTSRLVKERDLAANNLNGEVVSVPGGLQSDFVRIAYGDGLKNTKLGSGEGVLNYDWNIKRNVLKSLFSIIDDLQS

B1: S. cerevisiae Mlh1-Pms1 complex (complex)
chain 1: MSLRIKALDASVVNKIAAGEIIISPVNALKEMMENSIDANATMIDILVKEGGIKVLQITDNGSGINKADLPILCERFTTSKLQKFEDLSQIQTYGFRGEALASISHVARVTVTTKVKEDRCAWRVSYAEGKMLESPKPVAGKDGTTILVEDLFFNIPSRLRALRSHNDEYSKILDVVGRYAIHSKDIGFSCKKFGDSNYSLSVKPSYTVQDRIRTVFNKSVASNLITFHISKVEDLNLESVDGKVCNLNFISKKSISPIFFINNRLVTCDLLRRALNSVYSNYLPKGNRPFIYLGIVIDPAAVDVNVHPTKREVRFLSQDEIIEKIANQLHAELSAIDTSRTFKASSISTNKPESLIPFNDTIESDRNRKSLRQAQVVENSYTTANSQLRKAKRQENKLVRIDASQAKITSFLSSSQQFNFEGSSTKRQLSEPKVTNVSHSQEAEKLTLNESEQPRDANTINDNDLKDQPKKKQKLGDYKVPSIADDEKNALPISKDGYIRVPKERVNVNLTSIKKLREKVDDSIHRELTDIFANLNYVGVVDEERRLAAIQHDLKLFLIDYGSVCYELFYQIGLTDFANFGKINLQSTNVSDDIVLYNLLSEFDELNDDASKEKIISKIWDMSSMLNEYYSIELVNDGLDNDLKSVKLKSLPLLLKGYIPSLVKLPFFIYRLGKEVDWEDEQECLDGILREIALLYIPDMVPKVDTSDASLSEDEKAQFINRKEHISSLLEHVLFPCIKRRFLAPRHILKDVVEIANLPDLYKVFERC
chain 2: MTQIHQINDIDVHRITSGQVITDLTTAVKELVDNSIDANANQIEIIFKDYGLESIECSDNGDGIDPSNYEFLALKHYTSKIAKFQDVAKVQTLGFRGEALSSLCGIAKLSVITTTSPPKADKLEYDMVGHITSKTTTSRNKGTTVLVSQLFHNLPVRQKEFSKTFKRQFTKCLTVIQGYAIINAAIKFSVWNITPKGKKNLILSTMRNSSMRKNISSVFGAGGMRGLEEVDLVLDLNPFKNRMLGKYTDDPDFLDLDYKIRVKGYISQNSFGCGRNSKDRQFIYVNKRPVEYSTLLKCCNEVYKTFNNVQFPAVFLNLELPMSLIDVNVTPDKRVILLHNERAVIDIFKTTLSDYYNRQELALPKRMCSQSEQQAQKRLKTEVFDDRSTTHESDNENYHTARSESNQSNHAHFNSTTGVIDKSNGTELTSVMDGNYTNVTDVIGSECEVSVDSSVVLDEGNSSTPTKKLPSIKTDSQNLSDLNLNNFSNPEFQNITSPDKARSLEKVVEEPVYFDIDGEKFQEKAVLSQADGLVFVDNECHEHTNDCCHQERRGSTDTEQDDEADSIYAEIEPVEINVRTPLKNSRKSISKDNYRSLSDGLTHRKFEDEILEYNLSTKNFKEISKNGKQMSSIISKRKSEAQENIIKNKDELEDFEQGEKYLTLTVSKNDFKKMEVVGQFNLGFIIVTRKVDNKYDLFIVDQHASDEKYNFETLQAVTVFKSQKLIIPQPVELSVIDELVVLDNLPVFEKNGFKLKIDEEEEFGSRVKLLSLPTSKQTLFDLGDFNELIHLIKEDGGLRRDNIRCSKIRSMFAMRACRSSIMIGKPLNKKTMTRVVHNLSELDKPWNCPHGRPTMRHLMELRDWSSFSKDYEI
notes: Mlh1, S. cerevisiae, expressed from pRDK573 (pGAL1-10-MLH1 TRP1); Pms1, S. cerevisiae, expressed from pRDK1099 (pGAL1-10-PMS1-FLAG LEU2); also called Mlh1-Pms1 heterodimer
As for B1, the binding result (in assay [1]; in the assay with S. cerevisiae Msh2-Msh3) was “binds” in each case.

B2: S. cerevisiae Mlh1-Mlh2 complex (complex)
chain 1: B1 chain 1
chain 2: MTIHQLSPESQWKIVSSSFIYGPVAAVRELLDNSIDSGAKKVFIDVDSTTGGCEYISVKDDGSGVDIIDRPSMCLEYTTSKMSSLGDISILTTLGFRGEALFLLSNLCNQKGSMQVETKTADDVIGEKWLVDSKGGITNGKRYKVSCPVGTTVILRKLLGGLRARYLEISSRPRKTFDELIYLINHYSLIHRNIRFYFSLVSLQKNGAIERKQMQETLDPKISRARSLSLLARLKKPVPLNFIVEENFVIDEKINLDLILPRMVPESDVINIKRRFKFLSVNERALSLNLETGKTISKLLSSIYRDFSLLDPMVWFINLNCDTKLLDVNIEPEKNDVMIKSFEVIFKKIENKLKLLLEERIGIETNMLGDKHVQPSINEKTSPALVIPTPDAENEISKGCGAVSGKDKTDIPQKNSDLIVPTFYDEANLENTTIVAATPSPTKFSEDKALDEQTQLTISSYRSSSSGSMASEDSTNWRHNFQQELSENSEVAGAGSSTLPSSLTYNYIETIPENEDLELSKDASISNPFMITKIRNVNKKLSENLLEAKRTSCGDANKRGMPNERQLSNTEKKELIKLQQTYGKRNNTVDMTIPRNSKKKVTDNYIKKASCMHKTRPKLMHFSEYTNNYVYTLKNEKIVKHDSDNFAKETLWLRSRDDATSPSSSLLQALRAHVKKPGHIEATTNEWCLFTPDSP
notes: Mlh1, S. cerevisiae, expressed from pRDK573 (pGAL1-10-MLH1 TRP1); Mlh2, S. cerevisiae, MLH2 ORF put in place of the PMS1 ORF of pRDK1099, giving pRDK1664 (pGAL1-10-Mlh2-FLAG LEU2); Purified as a preformed complex through the FLAG tag on Mlh2; used at 40 nM in the SPR assay; also called Mlh1-Mlh2 heterodimer
As to B2, the binding result (in assay [1]; with S. cerevisiae Msh2-Msh3) was “binds” each time.

These data come from PMC4014439, “Mlh2 Is an Accessory Factor for DNA Mismatch Repair in Saccharomyces cerevisiae” (PLoS Genetics, 2014).
